Experimental data: patent US20240279345A1, “ALPHA 5 BETA 1 INTEGRIN BINDING AGENTS AND USES THEREOF” (PASITHEA THERAPEUTICS CORP., priority 2021, published 2024)
One block for each molecule: values may come before it.

Experiments:
rh-α5β1 = rh-α5β1 (Homo sapiens, UniProt P05556+P08648); assay: Competition binding studies by Biolayer Interferometry (epitope groups); conditions: for binding of rh-α5β1 complexed with antibody to C-14D12 on the sensor: C-14D12 immobilized on sensor; for Response (nm) / % Response: secondary mAb pre-mixed with 20 nM rh-α5β1; for % Response: relative to antigen alone; for epitope group: two epitope groups among 6 antibodies
In short: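 Pre-mixed competition BLI: FN-blocking lead antibodies A2-7A05, C-14D12 or A-15B08 loaded on sensors (700 s), quenched, baselined, then exposed 600 s to partner antibody preincubated 1 hr with rh-α5β1. Response relative to antigen alone: >120% = antibodies pair, <80% = antibodies block.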

[1] = target: T1, binding of α5β1 integrin to fibronectin (FN) (Homo sapiens, UniProt P05556+P08648); assay: Quantitative FN inhibition (FN-blocking) assay in ELISA format; type: biochemical; conditions: by ELISA
T1 construct: purchased Acro Biosystems IT1-H52W5
Description: To determine whether the 9 unique hybridoma clones selected as described in Example 4 were able to inhibit the binding of α5β1 integrin to fibronectin (FN), the antibodies were first purified from hybridoma supernatants by Protein A chromatography, protein concentrations measured by BCA assay (Pierce™ BCA Protein Assay Kit; Thermo Fisher Scientific, Waltham, MA, cat. no. 23225) and then tested in a quantitative FN inhibition assay in an ELISA format.
Immulon4 HBX ELISA 96-well plates were coated with FN by incubation overnight at 4° C. with 2.5 μg/mL human FN (R&D Systems, Minneapolis, MN 55413, cat. no. 1918-FN) in 1×PBS (0.01M phosphate buffer and 0.154M NaCl, pH 7.4). Plates were then washed 3 times with Wash Buffer (1× Tris Buffered Saline containing 0.05% Tween20), blocked with 2% BSA in 1×TBS for 2 hours at room temperature (RT). Antibodies were diluted in Standard Diluent (2% BSA, 1×TBS, 0.05% Tween20) containing 0.1 μg/mL rh-α5β1-6×His tagged protein (Acro Biosystems, Newark, DE, cat. no. IT1-H52W5), to generate an 11 point 1:3 antibody dilution series ranging from 10,000 ng/mL to 0.17 ng/mL. Isotype control antibody (Control Ab; Ms IgG2a EMD Millipore Corp, Billerica, MA, cat. no. PP102) was used to normalize data across different assay runs. For the assays, 100 uL of the antibody dilution series/His-tagged-α5β1 mixture was added to the wells after the blocking solution was removed and wells were washed 3 times. Following 1 hour at RT, the wells were washed 3 times, incubated with biotinylated Anti-6×His-Tag Ab (Invitrogen, Carlsbad, CA, cat. no. MAI-21315-BTIN) at 1:1000 in Standard Diluent for 1 hour, washed 3 times, incubated for 30 minutes with poly-HRP Streptavidin (Thermo Fisher Scientific, Waltham, MA, cat. no. N200), washed 4 times, incubated with TMB substrate (Thermo Fisher Scientific, Waltham, MA, cat. no. N301) for 2-5 minutes, followed by addition of ELISA Stop Solution (Invitrogen, Carlsbad, CA, cat. no. SS04). Absorbance 450 nm was measured. Data points were normalized to the isotype Control Ab values at each concentration and reported as % Absorbance 450 nm normalized to Control Ab. Non-linear regression analysis was used to fit curves (4-parameter) to the data using GraphPad Prism version 9.0.2 (GraphPad Software, LLC, San Diego, CA).
Freeze-thaw stability was tested on a small aliquot of each chimera antibody by overnight storage at −80° C. followed by thaw on ice, repeated three times. […] IC50s were calculated by non-linear regression analysis curve-fitting (4-parameter) of the ELISA data (FIG. 5) using GraphPad Prism version 9.0.2 (GraphPad Software, LLC, San Diego, CA). […]

[2] = antibody preincubated with rh-α5β1

T1 sequence (P08648 42-894 limits assumed): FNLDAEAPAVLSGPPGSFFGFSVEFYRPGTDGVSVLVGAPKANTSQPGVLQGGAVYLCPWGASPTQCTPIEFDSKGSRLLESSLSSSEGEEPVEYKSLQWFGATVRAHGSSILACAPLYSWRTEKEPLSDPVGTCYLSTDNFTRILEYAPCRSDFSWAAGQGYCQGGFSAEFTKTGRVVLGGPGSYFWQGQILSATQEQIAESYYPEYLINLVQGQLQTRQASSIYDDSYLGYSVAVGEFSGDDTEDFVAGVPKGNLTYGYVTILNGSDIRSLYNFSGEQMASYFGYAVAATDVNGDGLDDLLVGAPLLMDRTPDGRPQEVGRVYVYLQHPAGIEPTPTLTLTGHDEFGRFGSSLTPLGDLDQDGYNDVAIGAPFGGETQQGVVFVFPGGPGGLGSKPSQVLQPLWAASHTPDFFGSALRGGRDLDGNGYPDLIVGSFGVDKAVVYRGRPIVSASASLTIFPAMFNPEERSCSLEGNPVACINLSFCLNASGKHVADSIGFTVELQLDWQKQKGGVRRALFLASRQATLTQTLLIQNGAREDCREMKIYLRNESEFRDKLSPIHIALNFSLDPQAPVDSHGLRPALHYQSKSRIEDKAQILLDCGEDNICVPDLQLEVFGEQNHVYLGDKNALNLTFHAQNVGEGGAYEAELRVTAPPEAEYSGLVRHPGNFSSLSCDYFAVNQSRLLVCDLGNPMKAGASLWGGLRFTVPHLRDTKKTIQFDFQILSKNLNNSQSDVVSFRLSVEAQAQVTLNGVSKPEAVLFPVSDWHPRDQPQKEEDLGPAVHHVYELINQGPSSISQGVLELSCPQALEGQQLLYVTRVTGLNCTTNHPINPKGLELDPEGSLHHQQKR
T1 sequence (P08648 895-995 limits assumed): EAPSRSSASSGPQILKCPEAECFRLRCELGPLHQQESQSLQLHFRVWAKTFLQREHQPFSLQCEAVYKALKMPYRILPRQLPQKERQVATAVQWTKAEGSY
T1 sequence (P05556 21-728 limits assumed): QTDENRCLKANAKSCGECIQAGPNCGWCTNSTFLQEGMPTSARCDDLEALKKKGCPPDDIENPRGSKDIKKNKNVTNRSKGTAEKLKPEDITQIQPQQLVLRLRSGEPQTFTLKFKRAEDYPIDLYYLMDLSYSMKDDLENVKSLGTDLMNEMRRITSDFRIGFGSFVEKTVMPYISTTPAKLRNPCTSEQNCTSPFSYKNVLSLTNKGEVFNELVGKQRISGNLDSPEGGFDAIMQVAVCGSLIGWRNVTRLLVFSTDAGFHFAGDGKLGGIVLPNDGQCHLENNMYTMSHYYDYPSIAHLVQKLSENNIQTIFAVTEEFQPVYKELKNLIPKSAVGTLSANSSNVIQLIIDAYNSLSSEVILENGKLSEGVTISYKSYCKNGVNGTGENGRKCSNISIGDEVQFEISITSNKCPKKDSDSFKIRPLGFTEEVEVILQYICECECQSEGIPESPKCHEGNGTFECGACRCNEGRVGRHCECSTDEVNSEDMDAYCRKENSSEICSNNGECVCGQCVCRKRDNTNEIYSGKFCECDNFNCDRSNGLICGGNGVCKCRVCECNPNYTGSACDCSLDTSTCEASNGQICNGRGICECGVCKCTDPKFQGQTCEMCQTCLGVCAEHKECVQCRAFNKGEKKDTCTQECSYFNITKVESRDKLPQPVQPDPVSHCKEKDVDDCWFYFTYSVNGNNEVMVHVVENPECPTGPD
Sequence of rh-α5β1 (P08648 42-894 limits assumed): as the sequence (P08648 42-894 limits assumed) above
Sequence of rh-α5β1 (P08648 895-995 limits assumed): as the sequence (P08648 895-995 limits assumed) above
Sequence of rh-α5β1 (P05556 21-728 limits assumed): as the sequence (P05556 21-728 limits assumed) above

binding of rh-α5β1 complexed with antibody to A2-7A05 on the sensor (rh-α5β1; antibody preincubated with rh-α5β1, A2-7A05 immobilized on sensor): able to bind | binding of rh-α5β1 complexed with antibody to C-14D12 on the sensor (rh-α5β1; [2]): not able to bind | Response (nm) (rh-α5β1; immobilized mAb A2-7A05): 0.25 nm | % Response (rh-α5β1; immobilized mAb A2-7A05): 666.22% | Response (nm) (rh-α5β1; immobilized mAb A-15B08): −0.15 nm | % Response (rh-α5β1; immobilized mAb A-15B08): −73.81% | Response (nm) (rh-α5β1; immobilized mAb C-14D12): −0.09 nm | % Response (rh-α5β1; immobilized mAb C-14D12): −38.40% | epitope group (rh-α5β1): second group | class of FN binding blocker [1]: strong blockers of FN binding
B1: A-15B08: anti-α5β1 antibody, VH SEQ ID NO:25, VL SEQ ID NO:26; tested as mouse hybridoma antibody and as human IgG4 chimera (antibody, V domains shown)
VH: QVQLKESGPGLVAPSQSLSITCTISGFSLTSYGVHWVRQPPGKGLEWLVVIWSDGSTTYNSTLKSRLSISKDNSKSQVFFKMNSLQTDDTAMYYCARHYDYDGDWFAYWGQGTLVTVSA
VL: QIVLTQSPAIMSASLGERVTMTCTASSRVSSNSLHWYQQKPGSSPKLWIYSTSNLASGVPARFSGSGSGTSYSLTISSMEAEDAATYYCHQYLRSPPTFGGGTKLEIK
modifications: A-15B08 VH Sequence; A-15B08 VL Sequence
notes: tested as mouse hybridoma antibody and as human IgG4 chimera

binding of rh-α5β1 complexed with antibody to A-15B08 on the sensor (rh-α5β1; antibody preincubated with rh-α5β1, A-15B08 immobilized on sensor): able to bind | binding of rh-α5β1 complexed with antibody to C-14D12 on the sensor (rh-α5β1; [2]): able to bind | Response (nm) (rh-α5β1; immobilized mAb A2-7A05): −0.17 nm | % Response (rh-α5β1; immobilized mAb A2-7A05): −451.35% | Response (nm) (rh-α5β1; immobilized mAb A-15B08): 0.31 nm | % Response (rh-α5β1; immobilized mAb A-15B08): 150.63% | Response (nm) (rh-α5β1; immobilized mAb C-14D12): 0.31 nm | % Response (rh-α5β1; immobilized mAb C-14D12): 139.39% | epitope group (rh-α5β1): one group | class of FN binding blocker [1]: partial blocker of FN binding
B2: A2-7A05: anti-α5β1 antibody, VH SEQ ID NO:77, VL SEQ ID NO:78; tested as mouse hybridoma antibody and as human IgG4 chimera (antibody, V domains shown)
VH: QVQLQQPGAELVKPGASVKLSCKASGYTFTIYWINWVKQRPGQGLEWIGKIYPGSISTDYNEKFKSKATLTVDTSSSTAYMQLSSLTSDDSAVYYCAITGTGGLAYWGQGTLVTVSA
VL: ENVLTQSPAIMSASLGEKVTMTCRASSSVNYMYWYQQKSDASPKLWIYFTSSLAPGVPGRFSGSGSGNSYSLTISTMEGEDAATYYCQQFTTSPFTFGSGTKLEIK
modifications: A2-7A05 VH Sequence; A2-7A05 VL Sequence
notes: as for B1
